The results in this text go back to article PMC6127144.

The assay deals with human plasma membrane Ca2+-ATPase 1, full-length human PMCA1d (human) (UniProt P20020).
Chain of UniProt P20020 (P20020 other isoform, or with tags, fused parts or gaps): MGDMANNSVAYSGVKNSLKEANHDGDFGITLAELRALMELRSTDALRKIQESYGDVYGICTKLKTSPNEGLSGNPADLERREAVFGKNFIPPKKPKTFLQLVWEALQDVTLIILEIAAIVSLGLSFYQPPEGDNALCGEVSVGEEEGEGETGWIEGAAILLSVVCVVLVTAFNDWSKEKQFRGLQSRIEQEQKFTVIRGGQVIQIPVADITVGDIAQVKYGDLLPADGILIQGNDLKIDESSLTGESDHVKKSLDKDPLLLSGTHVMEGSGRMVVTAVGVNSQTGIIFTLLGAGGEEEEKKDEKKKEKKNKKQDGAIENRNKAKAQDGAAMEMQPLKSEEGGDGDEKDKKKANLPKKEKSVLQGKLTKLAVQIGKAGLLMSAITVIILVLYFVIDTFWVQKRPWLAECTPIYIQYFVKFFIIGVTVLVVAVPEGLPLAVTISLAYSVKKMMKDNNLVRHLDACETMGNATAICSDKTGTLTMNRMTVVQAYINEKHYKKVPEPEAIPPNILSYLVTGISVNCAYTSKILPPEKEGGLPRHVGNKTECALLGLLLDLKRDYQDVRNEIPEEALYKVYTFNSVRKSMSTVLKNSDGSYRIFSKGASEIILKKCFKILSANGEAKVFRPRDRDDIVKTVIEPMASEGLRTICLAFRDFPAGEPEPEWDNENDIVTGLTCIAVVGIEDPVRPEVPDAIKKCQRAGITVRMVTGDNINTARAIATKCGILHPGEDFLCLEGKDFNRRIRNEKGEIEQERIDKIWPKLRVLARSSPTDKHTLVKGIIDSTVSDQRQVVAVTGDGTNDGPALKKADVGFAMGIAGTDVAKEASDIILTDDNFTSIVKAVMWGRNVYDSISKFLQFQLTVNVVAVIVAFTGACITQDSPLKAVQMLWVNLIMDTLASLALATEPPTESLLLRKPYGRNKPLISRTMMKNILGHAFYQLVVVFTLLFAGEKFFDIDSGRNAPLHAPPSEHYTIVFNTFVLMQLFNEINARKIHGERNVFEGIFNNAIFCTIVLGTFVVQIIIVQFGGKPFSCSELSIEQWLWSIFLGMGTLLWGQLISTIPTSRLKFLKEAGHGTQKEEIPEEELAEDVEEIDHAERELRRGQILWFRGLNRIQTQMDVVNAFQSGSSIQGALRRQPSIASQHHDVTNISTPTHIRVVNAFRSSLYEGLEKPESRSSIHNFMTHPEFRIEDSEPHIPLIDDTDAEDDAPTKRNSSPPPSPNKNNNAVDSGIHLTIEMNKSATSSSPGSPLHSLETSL

Take neuroplastin (natural protein): the Vmax of the ATPase activity of purified hPMCA1-NPTN proteins (nmol mg^-1 min^-1) was found to be 326.
